From patent US20150132305A1

T1: Cad-8 EC1 domain peptide (region overlapping G1-G33 of the Cad-11 EC1 domain) (UniProt P55286)
T1 sequence (peptide, conjugated to biotin, looked up): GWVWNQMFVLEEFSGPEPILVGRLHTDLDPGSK

T2: recombinant Cad-11 EC1 human IgG1 fusion protein (R&D Systems Cat. No. 1790-CA-050) (human) (UniProt P55287)
T2 sequence: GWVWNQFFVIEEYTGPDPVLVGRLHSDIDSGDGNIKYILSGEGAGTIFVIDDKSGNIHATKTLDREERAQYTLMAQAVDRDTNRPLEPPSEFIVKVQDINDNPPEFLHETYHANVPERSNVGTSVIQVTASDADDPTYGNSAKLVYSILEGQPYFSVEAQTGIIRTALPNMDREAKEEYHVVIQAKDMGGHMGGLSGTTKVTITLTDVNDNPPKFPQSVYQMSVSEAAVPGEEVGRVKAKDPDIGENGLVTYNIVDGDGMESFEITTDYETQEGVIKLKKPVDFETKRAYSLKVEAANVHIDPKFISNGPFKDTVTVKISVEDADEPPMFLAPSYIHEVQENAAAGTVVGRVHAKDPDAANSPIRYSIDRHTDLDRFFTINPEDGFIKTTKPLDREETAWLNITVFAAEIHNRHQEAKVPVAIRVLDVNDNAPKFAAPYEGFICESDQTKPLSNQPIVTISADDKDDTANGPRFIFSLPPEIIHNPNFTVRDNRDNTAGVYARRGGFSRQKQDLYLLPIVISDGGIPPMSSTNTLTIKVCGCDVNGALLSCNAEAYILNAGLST

T3: human Cadherin-11 on cells (Cad-11-expressing 431-D-11 cells; human fibroblast-like synoviocytes) (human) (UniProt P55287)
T3 sequence: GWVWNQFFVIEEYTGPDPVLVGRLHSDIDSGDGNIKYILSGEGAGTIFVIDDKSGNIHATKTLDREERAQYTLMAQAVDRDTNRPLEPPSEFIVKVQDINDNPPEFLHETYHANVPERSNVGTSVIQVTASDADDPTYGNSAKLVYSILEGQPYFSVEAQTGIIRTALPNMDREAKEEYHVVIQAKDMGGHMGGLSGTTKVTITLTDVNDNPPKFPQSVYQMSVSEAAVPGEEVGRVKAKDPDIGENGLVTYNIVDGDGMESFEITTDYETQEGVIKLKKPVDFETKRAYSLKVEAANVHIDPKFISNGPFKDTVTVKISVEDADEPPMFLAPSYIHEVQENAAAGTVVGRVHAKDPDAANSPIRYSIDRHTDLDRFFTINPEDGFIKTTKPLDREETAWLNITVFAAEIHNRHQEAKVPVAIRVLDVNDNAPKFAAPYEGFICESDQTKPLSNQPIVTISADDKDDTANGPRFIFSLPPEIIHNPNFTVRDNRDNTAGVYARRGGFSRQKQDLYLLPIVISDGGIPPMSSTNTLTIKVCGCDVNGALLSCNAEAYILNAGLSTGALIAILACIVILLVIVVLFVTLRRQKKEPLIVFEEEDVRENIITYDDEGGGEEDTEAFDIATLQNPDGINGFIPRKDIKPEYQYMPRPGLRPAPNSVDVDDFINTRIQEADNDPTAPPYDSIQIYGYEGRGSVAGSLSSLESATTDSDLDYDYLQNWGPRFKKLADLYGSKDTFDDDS

T4: Cad-11 37-mer peptide linked to BSA (encompasses the Cad-11 immunogen) (human)
T4 sequence (peptide, linked to BSA): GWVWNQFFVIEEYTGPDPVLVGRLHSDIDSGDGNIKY


Assays:
[1] = target: Cad-11 EC1 domain peptide, first 33 amino acids (G1-G33), specificity ELISA of Example 5 (human); test: ELISA on biotin EC1 peptides
[2] = target: T1, Cad-8 EC1 domain peptide (region overlapping G1-G33 of the Cad-11 EC1 domain); test: ELISA on biotin EC1 peptides
[3] = target: T2, recombinant Cad-11 EC1 human IgG1 fusion protein (R&D Systems Cat. No. 1790-CA-050) (human); test: competition ELISA on coated recombinant human Cad-11 EC1 fusion protein against biotinylated SYN0012 (0.1 µg/ml)
[4] = target: T3, human Cadherin-11 on cells (Cad-11-expressing 431-D-11 cells; human fibroblast-like synoviocytes) (human); test: cell-based or functional assay
[5] = target: T4, Cad-11 37-mer peptide linked to BSA (encompasses the Cad-11 immunogen) (human); test: ELISA, BSA-coupled 37-mer cadherin peptide coated at 500 ng/ml, A450
[6] = target: T4, Cad-11 37-mer peptide linked to BSA (encompasses the Cad-11 immunogen) (human); test: ELISA on peptide antigens, 50 ng/ml coat
[7] = target: T4, Cad-11 37-mer peptide linked to BSA (encompasses the Cad-11 immunogen) (human); test: ELISA on BSA-coupled 37-mer peptides, 500 ng/ml coat
[8] = target: T4, Cad-11 37-mer peptide linked to BSA (encompasses the Cad-11 immunogen) (human); test: ELISA on peptide antigen, 50 ng/ml coat; Cad-11 antigen, 50 ng/ml coat

Binder | fold higher binding to Cad-11 than to any of the other cadherins tested [1] | fold lower binding than to Cad-11 [2] | IC50 (read off the curve) [3] | inhibition of FLS invasion into MATRIGEL-coated membrane [4] | EC50 (read off the curve) [5] | binding differential, Cad-11 against Cad-8 [6] | fold greater binding to the Cad-11 antigen than to the related antigens from the other cadherins [7] | EC50 [8]
H1M1 anti-Cad-11 EC1 domain antibody (hybridoma H1M1, ATCC PTA-9699) (antibody, V domains shown) VH: EVQLQQSGPELVKPGASVKISCKASGYSFTGYFMNWVKQSHGKSLEWIGRINPYTGDTFYNQKFKGKATLTVDKSSSTAHMELLSLSSEDSAVYYCGRLGSRYWYFDVWGAGTTVTVSS VL: DVLMTQTPLSLPVSLGDQASISCRSSQSIIHSNGNTYLEWYLQKPGQSPKLLIYKVSNRFSGVPDRFWTFGGGTKLEIKTGSGSGTDFTLKISRVEAEDLGVYYCFQGSHVPWTFGGGTKLEIK | > 100 fold | 1500 fold | 0.2 µg/mL | 80% |  |  |  | 
SDP051 humanized anti-Cad-11 EC1 antibody (Vκ1/VH5) (antibody, IgG4, V domains shown) VH: EVQLVQSGAEVKKPGASVKVSCKASGYSFTGYFMNWVRQAPGQGLEWIGRINPYTGDTFYNQKFKGRVTITVDKSTSTAYMELSSLRSEDTAVYYCGRLGSRYWYFDVWGQGTTVTVSS VL: DVLMTQTPLSSPVTLGQPASISCRSSQSIIHSNGNTYLEWYLQKPGQSPQLLIYKVSNRFSGVPDRFTGSGSGTDFTLKISRVEAEDVGVYYCFQGSHVPWTFGQGTKLEIK |  |  |  |  | 0.04 µg/mL | > 200 fold | > 100 fold | 0.0068 µg/mL
